Literature values in publication PMC5430804, “Structural and biochemical insights of CypA and AIF interaction” (Scientific Reports, 2017).
pKd: −log10 of the molar value.

Biological target: AIF(Δ1-121) Δ1-121 (Homo sapiens) (UniProt O95831)
Sequence (O95831 1-121, stated change not applied): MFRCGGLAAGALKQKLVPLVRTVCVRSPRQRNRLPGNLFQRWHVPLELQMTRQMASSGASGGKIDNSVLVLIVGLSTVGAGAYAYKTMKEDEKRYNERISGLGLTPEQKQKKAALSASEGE

CypA, sequence (P62937 2-165): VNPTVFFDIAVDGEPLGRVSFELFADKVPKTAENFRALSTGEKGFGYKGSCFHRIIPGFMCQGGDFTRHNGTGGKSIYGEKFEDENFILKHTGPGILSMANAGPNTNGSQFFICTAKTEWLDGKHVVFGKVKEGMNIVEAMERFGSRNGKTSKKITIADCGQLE

pKd: 6.05
Substance: CypA (from UniProt P62937)
